Where a chain is given by its changes, count along the chain named. Values belong to the molecule of their own block, whether it stands above or below them.
Assays:
[1] = biological target: T1, bovine LPL (lipoprotein lipase) (bovine, UniProt P11151 29-478); experiment: cell-based or functional assay
T1 sequence (looked up): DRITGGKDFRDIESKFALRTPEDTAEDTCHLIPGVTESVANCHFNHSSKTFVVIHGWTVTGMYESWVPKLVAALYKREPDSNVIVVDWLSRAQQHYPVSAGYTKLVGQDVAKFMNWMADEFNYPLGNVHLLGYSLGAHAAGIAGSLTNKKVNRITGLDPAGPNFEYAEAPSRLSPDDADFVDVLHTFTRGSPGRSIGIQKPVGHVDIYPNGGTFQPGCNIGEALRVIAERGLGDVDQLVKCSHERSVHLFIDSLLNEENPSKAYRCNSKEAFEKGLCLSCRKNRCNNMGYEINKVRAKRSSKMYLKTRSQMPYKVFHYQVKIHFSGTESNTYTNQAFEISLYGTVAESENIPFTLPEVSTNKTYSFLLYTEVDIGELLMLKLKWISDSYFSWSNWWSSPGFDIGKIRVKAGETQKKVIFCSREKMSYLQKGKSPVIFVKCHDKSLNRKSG

Delta4c trunc14 = biological target: T2, Delta4c trunc14
T2 chain: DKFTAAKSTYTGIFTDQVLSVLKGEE

Delta13-31-PV = biological target: T3, Delta13-31-PV
T3 chain: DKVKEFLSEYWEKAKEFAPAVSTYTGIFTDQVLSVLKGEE

Delta4b-2 = biological target: T4, Delta4b-2
T4 chain: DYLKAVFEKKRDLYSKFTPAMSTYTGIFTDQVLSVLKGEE

Delta4c trunc10 = biological target: T5, Delta4c trunc10
T5 chain: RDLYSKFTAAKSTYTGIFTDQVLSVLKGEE

Delta4c trunc7 = biological target: T6, Delta4c trunc7
T6 chain: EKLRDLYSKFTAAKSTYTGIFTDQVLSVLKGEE

Delta4c = biological target: T7, Delta4c
T7 chain: T4 chain with K10L, P19A, M21K

C2thirdhelix = biological target: T8, C2thirdhelix
T8 chain: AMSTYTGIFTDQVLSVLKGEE

Delta4 = biological target: T9, Delta4
T9 chain: T4 chain with K10L, P19A, M21L

[2] = biological target: T10, C2thirdhelix Stearylpos17
T10 chain: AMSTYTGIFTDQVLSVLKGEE

Delta4b-3 = biological target: T11, Delta4b-3
T11 chain: T4 chain with K10L, F17K

C2thirdhelix Stearylpos2 = biological target: T12, C2thirdhelix Stearylpos2
T12 chain: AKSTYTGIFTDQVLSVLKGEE

Delta4c trunc3 = biological target: T13, Delta4c trunc3
T13 chain: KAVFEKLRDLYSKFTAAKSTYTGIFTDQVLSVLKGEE

Delta4c trunc4 = biological target: T14, Delta4c trunc4
T14 chain: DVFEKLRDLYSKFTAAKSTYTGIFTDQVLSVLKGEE

Delta6 = biological target: T15, Delta6
T15 chain: T4 chain with A5E, K10L, S15E, P19A, M21L

Delta4b T57F = biological target: T16, Delta4b T57F
T16 chain: T4 chain with K10L, T18F

Delta5 = biological target: T17, Delta5
T17 chain: T4 chain with A5E, K10L, P19A, M21L

Delta4b = biological target: T18, Delta4b
T18 chain: T4 chain with K10L

[3] = biological target: variants of Delta5 with the indicated amino acid substitutions
Delta4c trunc11 = biological target: T19, Delta4c trunc11
T19 chain: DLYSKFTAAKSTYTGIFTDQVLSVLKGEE

C2thirdhelix Stearylpos1 = biological target: T20, C2thirdhelix Stearylpos1
T20 chain: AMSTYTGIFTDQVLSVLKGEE

Delta4b-1 = biological target: T21, Delta4b-1
T21 chain: T4 chain with F7K, K10L

- free fatty acid (NEFA) production, LPL assay with high TG human plasma (1:50) [1]: 1.7 µM
- free fatty acid (NEFA) production, LPL assay with human plasma [1]: 0.8 µM
Molecule: recombinant ApoC-III

B1: bovine LPL (lipoprotein lipase) (protein)
chain: T1 sequence (looked up)
- TG hydrolysis, LPL assay with apoC-II deficient patient sera (Delta4c trunc14): Delta4c and its truncation variants promoted TG hydrolysis
- TG hydrolysis, in vitro LPL assay with apoC-II deficient patient sera (Delta13-31-PV): promoted TG hydrolysis in vitro in a dose-dependent manner
- TG hydrolysis, in vitro LPL assay, 100 pM to 10 µM peptide (Delta4b-2): promoted TG hydrolysis in a dose-dependent manner
- TG hydrolysis, LPL assay with apoC-II deficient patient sera (Delta4c trunc10): Delta4c and its truncation variants promoted TG hydrolysis
- TG hydrolysis, LPL assay with apoC-II deficient patient sera (Delta4c trunc7): Delta4c and its truncation variants promoted TG hydrolysis
- TG hydrolysis, LPL assay with apoC-II deficient patient sera (Delta4c): Delta4c and its truncation variants promoted TG hydrolysis
- TG hydrolysis, in vitro LPL assay with apoC-II deficient patient sera (C2thirdhelix): lipidation enhanced the ability of C2thirdhelix to promote TG hydrolysis
- TG hydrolysis, LPL assay using Intralipid as substrate (Delta4): worked more efficiently than the native apoC-II protein at concentrations of between about 1 nM to about 10 µM
- TG hydrolysis, in vitro LPL assay, 100 pM to 10 µM peptide (Delta4): promoted TG hydrolysis in a dose-dependent manner
- TG hydrolysis, in vitro LPL assay with apoC-II deficient patient sera [2]: lipidation enhanced the ability of C2thirdhelix to promote TG hydrolysis
- TG hydrolysis, in vitro LPL assay with apoC-II deficient patient sera (Delta4b-3): incorporation of proline at position 58 and the stearic acid modification at the lysine residue at position 56 enhanced the TG clearance ability of the exemplary apoC-III mimetic peptide Delta4
- TG hydrolysis, in vitro LPL assay, 100 pM to 10 µM peptide (Delta4b-3): promoted TG hydrolysis in a dose-dependent manner
- TG hydrolysis, in vitro LPL assay with apoC-II deficient patient sera (C2thirdhelix Stearylpos2): lipidation enhanced the ability of C2thirdhelix to promote TG hydrolysis
- TG hydrolysis, LPL assay with apoC-II deficient patient sera (Delta4c trunc3): Delta4c and its truncation variants promoted TG hydrolysis
- TG hydrolysis, LPL assay with apoC-II deficient patient sera (Delta4c trunc4): Delta4c and its truncation variants promoted TG hydrolysis
- TG hydrolysis, LPL assay with apoC-II deficient patient sera (Delta6): all variants of Delta5 with the indicated amino acid substitutions and Delta6 exhibited the ability to promote TG hydrolysis in a dose dependent matter
- TG hydrolysis, in vitro LPL assay, 100 pM to 10 µM peptide (Delta4b T57F): promoted TG hydrolysis in a dose-dependent manner
- TG hydrolysis, LPL assay using Intralipid as substrate (Delta5): worked more efficiently than the native apoC-II protein at concentrations of between about 1 nM to about 10 µM
- TG hydrolysis, in vitro LPL assay with apoC-II deficient patient sera (Delta4b): incorporation of proline at position 58 and the stearic acid modification at the lysine residue at position 56 enhanced the TG clearance ability of the exemplary apoC-III mimetic peptide Delta4
- TG hydrolysis, in vitro LPL assay, 100 pM to 10 µM peptide (Delta4b): promoted TG hydrolysis in a dose-dependent manner
- TG hydrolysis, LPL assay with apoC-II deficient patient sera [3]: all variants of Delta5 with the indicated amino acid substitutions and Delta6 exhibited the ability to promote TG hydrolysis in a dose dependent matter
- production of free fatty acid (NEFA), LPL assay with Intralipid as substrate (recombinant ApoC-III): apoC-III inhibited the production of free fatty acid (NEFA)
- TG hydrolysis, LPL assay with apoC-II deficient patient sera (Delta4c trunc11): Delta4c and its truncation variants promoted TG hydrolysis
- TG hydrolysis, in vitro LPL assay with apoC-II deficient patient sera (C2thirdhelix Stearylpos1): lipidation enhanced the ability of C2thirdhelix to promote TG hydrolysis
- TG hydrolysis, in vitro LPL assay, 100 pM to 10 µM peptide (Delta4b-1): promoted TG hydrolysis in a dose-dependent manner

- molar ratio of apoC-II-a to apoC-III that overcomes the in vitro inhibition of LPL [1]: 0.1 molar ratio apoC-II-a : apoC-III
Molecule: DWLKAFYDKVAEKLKEAFPAMSTYTGIFTDQVLSVLKGEE [apoC-II-a peptide]
